From article PMC3641832

Assays:
[1] = molecular target: cce_0566 from Cyanothece sp. ATCC 51142 (DUF269 family protein) (Cyanothece sp. ATCC 51142); assay: SEC
[2] = molecular target: cce_0566 from Cyanothece sp. ATCC 51142 (DUF269 family protein) (Cyanothece sp. ATCC 51142); assay: NMR 15N relaxation
[3] = molecular target: cce_0566 from Cyanothece sp. ATCC 51142 (DUF269 family protein) (Cyanothece sp. ATCC 51142); assay: crystal structure

Measured: stoichiometry N

cce_0566 from Cyanothece sp. ATCC 51142 (DUF269 family protein) (natural protein)
2: all assays above
